Data: the Immune Epitope Database (IEDB)

What was measured:
[1] = target: HLA-B*35:01; experiment: IEDB peptide-MHC binding, purified MHC/competitive/radioactivity; filed as Kd, often an IC50 or EC50 that approximates it; ≥ and ≤ were set here for values at or beyond the usual limits of such assays
[2] = target: HLA-B*54:01; experiment: as above
[3] = target: HLA-B*07:02; experiment: as above
[4] = target: HLA-B*51:01; experiment: as above
[5] = target: HLA-B*53:01; experiment: as above
[6] = target: HLA-A*29:02; experiment: IEDB peptide-MHC binding, purified MHC/competitive/fluorescence; filed as Kd, often an IC50 or EC50 that approximates it; ≥ and ≤ were set here for values at or beyond the usual limits of such assays
[7] = target: HLA-A*02:02; experiment: IEDB peptide-MHC binding, purified MHC/competitive/radioactivity; filed as Kd, often an IC50 or EC50 that approximates it; ≥ and ≤ were set here for values at or beyond the usual limits of such assays
[8] = target: HLA-A*02:03; experiment: as above
[9] = target: HLA-A*02:01; experiment: as above
[10] = target: HLA-A*68:02; experiment: as above
[11] = target: HLA-A*02:06; experiment: as above
[12] = target: HLA-A*26:01; experiment: as above
[13] = target: HLA-A*01:01; experiment: as above
[14] = target: HLA-B*48:01; experiment: IEDB peptide-MHC binding, purified MHC/direct/fluorescence; filed as Kd, often an IC50 or EC50 that approximates it; ≥ and ≤ were set here for values at or beyond the usual limits of such assays; conditions: source organism: Campylobacter jejuni subsp. jejuni 81116
[15] = target: HLA-A*11:01; experiment: IEDB peptide-MHC binding, purified MHC/competitive/radioactivity; filed as Kd, often an IC50 or EC50 that approximates it; ≥ and ≤ were set here for values at or beyond the usual limits of such assays; conditions: source organism: Vaccinia virus WR
[16] = target: HLA-A*03:01; experiment: as above; conditions: source organism: Vaccinia virus WR
[17] = target: HLA-A*31:01; experiment: as above; conditions: source organism: Vaccinia virus WR
[18] = target: HLA-A*33:01; experiment: as above; conditions: source organism: Vaccinia virus WR
[19] = target: HLA-A*68:01; experiment: as above; conditions: source organism: Vaccinia virus WR
[20] = source organism: Mammarenavirus whitewaterense
[21] = source organism: Triticum aestivum
[22] = source organism: Vaccinia virus WR
[23] = source organism: Hepacivirus hominis
[24] = source organism: Mammarenavirus lassaense
[25] = source organism: SARS coronavirus Tor2
[26] = source organism: Dengue virus 4 Philippines/H241/1956
[27] = source organism: Dengue virus 1 Brazil/97-11/1997
[28] = source organism: Dengue virus 3 Martinique/1243/1999

Sequence APTGGVVKI has a Kd [1, 20] of 9.32 µM, a Kd [2, 20] of no less than 78.1 µM and a Kd [3, 20] of 1.78 µM. For the same sequence, the Kd [4, 20] was no less than 57.8 µM and the Kd [5, 20] was 10.5 µM.

IPEQSQCQAI was tested, and the Kd [1, 21] was 6.05 µM, the Kd [2, 21] was no less than 25.6 µM and the Kd [3, 21] was 5.9 µM. It also gave a Kd [4, 21] of 0.774 µM and a Kd [5, 21] of 3.89 µM.

LMISGDLPQ gave a Kd ([6]; source organism: Sinorhizobium meliloti 1021) of 0.0373 µM.

In the case of VDFGIIWRY, the Kd ([6]; source organism: Vibrio cholerae 2740-80) is reported as 0.1 µM.

With QPFPQPQLPY the Kd [1, 21] was 0.00937 µM, the Kd [2, 21] was no less than 41 µM and the Kd [3, 21] was 0.552 µM. For the same sequence, the Kd [4, 21] was 1.37 µM and the Kd [5, 21] was 0.256 µM.

For VPLPCQLMYA, the Kd [1, 22] was 2.33 µM, the Kd [2, 22] was 0.000136 µM and the Kd [3, 22] was 7.43 µM. The Kd [4, 22] was 0.621 µM and the Kd [5, 22] was 0.46 µM.

CPASKKESVI showed a Kd [1, 22] of no less than 69.9 µM, a Kd [2, 22] of 2.41 µM and a Kd [3, 22] of 0.00712 µM. For the same sequence, the Kd [4, 22] was 9.31 µM and the Kd [5, 22] was 0.0923 µM.

In the case of VLSDFRTWL, the Kd [7, 23] is reported as 0.00172 µM, the Kd [8, 23] is reported as 0.00718 µM and the Kd [9, 23] is reported as 0.00178 µM. The Kd [10, 23] was 5.28 µM and the Kd [11, 23] was 0.305 µM.

FPYIMGSVEL showed a Kd [1, 24] of 0.0124 µM, a Kd [2, 24] of 0.155 µM and a Kd [3, 24] of 0.241 µM. For the same sequence, the Kd [4, 24] was 0.368 µM and the Kd [5, 24] was 0.0802 µM.

For CPAVAVHDF, the Kd [1, 25] was 0.0144 µM, the Kd [2, 25] was 7.48 µM and the Kd [3, 25] was 1.64 µM. The Kd [4, 25] was 0.241 µM and the Kd [5, 25] was 0.0276 µM.

YDPARYPLY was tested, and the Kd ([6]; source organism: Vibrio vulnificus YJ016) was 0.0305 µM.

Work on QPFPQPQL yielded a Kd [1, 21] of no less than 87.8 µM, a Kd [2, 21] of no less than 20.3 µM and a Kd [3, 21] of 0.583 µM. For the same sequence, the Kd [4, 21] was 2.16 µM and the Kd [5, 21] was no less than 87.7 µM.

ETFSMGLLCL was tested, and the Kd [12, 26] was 0.289 µM, the Kd [10, 26] was 0.00659 µM and the Kd [13, 26] was 7.33 µM.

Work on VPAAIMMIL yielded a Kd [1, 22] of 18.7 µM, a Kd [2, 22] of no less than 78.1 µM and a Kd [3, 22] of no less than 76.9 µM. The Kd [4, 22] was no less than 77.5 µM and the Kd [5, 22] was 19.3 µM.

For MTTEDMLSV, the Kd [12, 27] was 1.26 µM, the Kd [10, 27] was 0.0106 µM and the Kd [13, 27] was 5.06 µM. It also gave a Kd [11, 27] of 0.0106 µM.

For RKNGGNFLL, the Kd [14] was 0.145 µM.

In the case of FTILALFLA, the Kd [10, 28] is reported as 0.0355 µM and the Kd [11, 28] is reported as 0.000746 µM.

In the case of AFVRFSTDK, the Kd [15] is reported as 8.6 µM, the Kd [1, 22] is reported as no less than 33.9 µM and the Kd [7, 22] is reported as no less than 77.8 µM. The Kd [16] was no less than 25.4 µM, the Kd [2, 22] was no less than 78.1 µM and the Kd [3, 22] was no less than 77.5 µM. The Kd [4, 22] was no less than 77.5 µM, the Kd [8, 22] was no less than 78.1 µM and the Kd [17] was 3.1 µM. For the same sequence, the Kd [9, 22] was no less than 78.1 µM, the Kd [18] was no less than 77.7 µM and the Kd [19] was no less than 57.7 µM. For the same sequence, the Kd [5, 22] was no less than 78.2 µM, the Kd [10, 22] was no less than 76.9 µM and the Kd [11, 22] was no less than 77.1 µM.
